Reference: patent publication US20210284711A1 (KAHR MEDICAL, published 2021)

Target: T1, human PDL1 (overexpressed on DLD1-PDL1 cells) (human, UniProt Q9NZQ7 19-290)
T1 construct: whole, on cells; also called B7H1; CD274
Test: flow cytometry on DLD1-PDL1 cells, GMFI plotted against DSP105 conc. [ug/ml] (two-fold steps)
Source text: Following, GMFI values were used to create a binding curve graph with a GraphPad Prism software (FIG. 10C). Taken together, both sides of the His-tagged DSP105_V17 (SEQ ID NO: 97), fusion protein, bind their relevant counterparts overexpressed on the surface of cells.

T1 sequence (Q9NZQ7 19-290): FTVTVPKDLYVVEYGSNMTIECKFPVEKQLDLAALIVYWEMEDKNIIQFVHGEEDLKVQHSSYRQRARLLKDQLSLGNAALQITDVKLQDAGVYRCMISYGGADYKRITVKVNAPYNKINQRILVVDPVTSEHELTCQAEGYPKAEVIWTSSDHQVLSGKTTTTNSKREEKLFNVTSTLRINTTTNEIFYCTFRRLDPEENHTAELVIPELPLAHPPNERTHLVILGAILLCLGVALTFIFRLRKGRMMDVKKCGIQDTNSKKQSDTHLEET

EC50 (read off the curve): ~0.9 µg/mL
B1: N-terminal His-tagged DSP105_V17 (PD1-4-1BBL variant fusion protein) (other)
chain: HHHHHHDSPDRPWNPPTFSPALLVVTEGDNATFTCSFSNTSESFVLNWYRMSPSNQTDKLAAFPEDRSQPGQDSRFRVTQLPNGRDFHMSVVRARRNDSGTYLCGAISLAPKAQIKESLRAELRVTERRAEVPTAHPSPSPRPAGQGSAASPRLREGPELSPDDPAGLLDLRQGMFAQLVAQNVLLIDGPLSWYSDPGLAGVSLTGGLSYKEDTKELVVAKAGVYYVFFQLELRRVVAGEGSGSVSLALHLQPLRSAAGAAALALTVDLPPASSEARNSAFGFQGRLLHLSAGQRLGVHLHTEARARHAWQLTQGATVLGLFRVTPEIPAGLPSPRSE
notes: also called N-terminal His-tagged DSP105_var17
